Series [1] is described as follows: cell surface biotinylation, Western blot quantitation. The settings on record: glycan lost; control: wild type. (In general: In western blotting, separated proteins are transferred to a membrane and probed.)
Series [2] in a line: domain-selective surface biotinylation of polarized cells. The settings on record: glycan lost; control: wild type.

Consider “voltage-gated sodium channel β2 subunit: N42,66,74Q”, for which the localisation_or_trafficking entry in series [1] is on record as “decreases”. The “other: apical versus basolateral polarity of surface protein” value in series [2] is listed as “no change”.

These data come from article PMC11532958.
